From patent US20200190136A1, “METHODS FOR GENERATING SMALL MOLECULE DEGRADERS AND DIMERIZERS” (DANA-FARBER CANCER INSTITUTE, INC., priority 2017, published 2020)

How the values were obtained:
[1] = target: His6-DDB1ΔB-His6-CRBN complex (human) (UniProt Q16531); assay: FP lenalidomide-Atto565 displacement from DDB1ΔB-CRBN, dBET6, with and without BRD4BD2
[2] = target: His6-DDB1ΔB-His6-CRBN complex (human) (UniProt Q16531); assay: FP lenalidomide-Atto565 displacement from DDB1ΔB-CRBN, dBET57, with and without BRD4BD2
[3] = target: His6-DDB1ΔB-His6-CRBN complex (human) (UniProt Q16531); assay: FP lenalidomide-Atto565 displacement from DDB1ΔB-CRBN, dBET23, with and without BRD4BD2

Sequence of His6-DDB1ΔB-His6-CRBN complex (human) (Q16531 other isoform, or with tags, fused parts or gaps mutant, chain 1 of 2): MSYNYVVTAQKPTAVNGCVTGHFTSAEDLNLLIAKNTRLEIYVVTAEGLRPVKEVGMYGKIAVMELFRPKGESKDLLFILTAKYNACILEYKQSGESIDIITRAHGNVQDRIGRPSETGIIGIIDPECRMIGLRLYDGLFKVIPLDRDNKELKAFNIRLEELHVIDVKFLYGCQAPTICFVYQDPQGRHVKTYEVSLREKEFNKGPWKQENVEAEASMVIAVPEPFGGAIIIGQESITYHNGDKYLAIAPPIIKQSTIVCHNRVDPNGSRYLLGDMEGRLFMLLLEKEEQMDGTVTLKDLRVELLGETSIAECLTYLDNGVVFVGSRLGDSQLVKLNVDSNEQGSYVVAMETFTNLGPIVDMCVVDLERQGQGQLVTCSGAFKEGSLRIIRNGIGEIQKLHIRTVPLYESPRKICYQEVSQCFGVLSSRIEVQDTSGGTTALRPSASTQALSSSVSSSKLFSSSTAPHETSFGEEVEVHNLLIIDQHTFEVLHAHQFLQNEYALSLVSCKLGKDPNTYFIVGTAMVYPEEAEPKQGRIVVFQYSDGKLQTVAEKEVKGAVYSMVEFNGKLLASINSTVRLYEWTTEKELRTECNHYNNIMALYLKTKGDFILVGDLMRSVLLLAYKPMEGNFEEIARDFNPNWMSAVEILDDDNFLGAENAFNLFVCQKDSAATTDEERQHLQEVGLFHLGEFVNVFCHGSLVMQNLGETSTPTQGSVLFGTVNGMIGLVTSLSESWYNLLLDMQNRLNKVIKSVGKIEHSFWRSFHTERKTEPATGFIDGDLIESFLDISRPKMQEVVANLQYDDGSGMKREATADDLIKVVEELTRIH
Sequence of His6-DDB1ΔB-His6-CRBN complex (human) (Q96SW2 whole entry, stated change not applied, chain 2 of 2, further chain): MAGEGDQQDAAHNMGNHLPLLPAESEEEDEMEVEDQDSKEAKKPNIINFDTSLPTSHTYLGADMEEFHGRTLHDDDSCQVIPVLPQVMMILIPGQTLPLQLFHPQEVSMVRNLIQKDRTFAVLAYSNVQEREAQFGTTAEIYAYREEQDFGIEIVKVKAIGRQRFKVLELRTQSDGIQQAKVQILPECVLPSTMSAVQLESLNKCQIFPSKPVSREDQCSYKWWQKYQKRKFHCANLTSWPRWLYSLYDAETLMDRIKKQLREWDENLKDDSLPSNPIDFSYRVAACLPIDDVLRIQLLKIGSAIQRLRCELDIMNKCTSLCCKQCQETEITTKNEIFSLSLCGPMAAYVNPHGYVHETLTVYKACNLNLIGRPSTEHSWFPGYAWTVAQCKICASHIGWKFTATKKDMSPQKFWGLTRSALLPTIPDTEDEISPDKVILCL

apparent cooperativity factor αapp (IC50[binary]/IC50[ternary]) [1]: 0.2
apparent cooperativity factor αapp (IC50[binary]/IC50[ternary]) [2]: < 0.1
apparent cooperativity factor αapp (IC50[binary]/IC50[ternary]) [3]: < 0.1
Substance: BRD4BD2 (second bromodomain of human BRD4) (from UniProt O60885 333-460)
